Target: Maporal virus (MPRLV) Gn/Gc virus-like particles (Maporal virus (MPRLV))
Assay: BLI

soluble PCDH1 EC1-EC2 (sEC1–2) (from UniProt Q08174-1 58-284) (domain or fragment)
Kd: 7 nM
